The text below walks through data of paper PMC7504508 (International Journal of Molecular Sciences, 2020).

The experiment has as its target calmodulin (UniProt P0DP23 1-149). The experiment can be described thus: SPR; GST-Sumo-Cx35 fusion proteins captured by immobilised anti-GST antibodies on a CM5 chip (Biacore 2000); calmodulin as analyte, 3 nM to 30 µM; GST-Sumo reference flowcell subtracted; 1 mM free Ca2+, 0.5 mM free Mg2+, 140 mM KCl, 10 mM MOPS pH 7.2, 0.05% Tween 20; first order ligand binding model. The following applies: both partners purified. (In general: In SPR one partner is held on a chip, and binding of the other changes the refractive index at the surface.)

B1: GST-Sumo fusion protein of the perch Connexin 35 intracellular loop (amino acids 101-192) (domain or fragment)
chain: SAKQKERRYSTVYLTLDKDQDSLKRDESKKIKNTIVNGVLQNTENSTKEAEPDCLEVKEIPNSAMRTTKSKMRRQEGISRFYIIQVVFRNAL
B1 had a Kd of 6.29 µM.

A word on the Kd: it is the constant that tells how readily two partners part at equilibrium.
